# According to the supplement of paper PMC7877785:
# ± gives the uncertainty stated by the source.
# Test: self-splicing fitness, log relative to wild type (ln ratio); higher = more splicing; Tetrahymena group I intron in knt gene, E. coli kanamycin selection, DiMSum; sequences stand for … in CUCUCU…GGAGGGAAAAGUUAUCAGGCAUGCACCUGGUAGCUAGUCUUUAAACCAAUAGAUUGCAUCGGUUUAAAAGGCAAGACCGUCAAAUUGCGGGAAAGGGGUCAACAGCCGUUCAGUACCAAGUCUCAGGGGAAACUUUGAGAUGGCCUUGCAAAGGGUAUGGUAAUAAGCUGACGGACAUGGUCCUAACCACGCAGCCAAGUCCUAAGUCAACAGAUCUUCUGUUGAUAUGGAUGCAGUUCACAGACUAAAUGUCGGUCGGGGAAGAUGUAUUCUUCUCAUAAGAUAUAGUCGGACCUCUCCUUAAUGGGAGCUAGCGGAUGAAGUGAUGCAACACUGGAGCCGCUGGGAACUAAUUUGUAUGCGAAAGUAUAUUGAUUAGUUUUGGAGUACUCGUGGUCG
# Outline: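 A randomised library covering all eight P1ex-region intron nucleotides was built with the intron in the knt kanamycin-resistance gene on pET-22b(+) and held in E. coli BL21(DE3). Cells were grown overnight at 37°C or 30°C on LB agar, with or without 25 μg/mL kanamycin, plus 100 μg/mL carbenicillin, 50 μM IPTG and 0.2% rhamnose, and pooled colonies were amplicon-sequenced on an Illumina HiSeq 2500. DiMSum fitness is the error-weighted combination of wild-type-normalised replicate fold changes, kanamycin versus none.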
sequence,measurement,setting,value
UGUGAGCAAUAUUACGAGCG,self-splicing fitness (ln),30 °C,-1.29 ± 0.12
same,self-splicing fitness (ln),37 °C,-0.066 ± 0.12
UGUGAGCAAUAUUACGAUAA,self-splicing fitness (ln),30 °C,-2.33 ± 0.16
same,self-splicing fitness (ln),37 °C,-1.92 ± 0.21
UGUGAGCAAUAUUACGAUAG,self-splicing fitness (ln),30 °C,-2.74 ± 0.24
same,self-splicing fitness (ln),37 °C,-0.644 ± 0.2
UGUGAGCAAUAUUACGAUGU,self-splicing fitness (ln),30 °C,-3.05 ± 0.18
same,self-splicing fitness (ln),37 °C,-2.08 ± 0.24
UGUGAGCAAUAUUACGCAUA,self-splicing fitness (ln),30 °C,-1.6 ± 0.23
same,self-splicing fitness (ln),37 °C,-2.46 ± 0.33
UGUGAGCAAUAUUACGGCUC,self-splicing fitness (ln),30 °C,-3.06 ± 0.44
same,self-splicing fitness (ln),37 °C,-3.18 ± 0.47
UGUGAGCAAUAUUACGGUAG,self-splicing fitness (ln),30 °C,-2.45 ± 0.18
same,self-splicing fitness (ln),37 °C,-1.79 ± 0.21
UGUGAGCAAUAUUACGGUGU,self-splicing fitness (ln),30 °C,-3 ± 0.31
same,self-splicing fitness (ln),37 °C,-2.84 ± 0.24
UGUGAGCAAUAUUACGUACG,self-splicing fitness (ln),30 °C,-0.814 ± 0.1
same,self-splicing fitness (ln),37 °C,-0.164 ± 0.12
UGUGAGCAAUAUUACGUCGC,self-splicing fitness (ln),30 °C,-1.15 ± 0.21
UGUGAGCAAUAUUACGUUGU,self-splicing fitness (ln),30 °C,-3.15 ± 0.25
same,self-splicing fitness (ln),37 °C,-3.13 ± 0.47
UGUUAGCAAUAUUACGACUU,self-splicing fitness (ln),30 °C,-0.357 ± 0.11
same,self-splicing fitness (ln),37 °C,0.12 ± 0.12
UGUUAGCAAUAUUACGAGUC,self-splicing fitness (ln),30 °C,-4.22 ± 0.42
UGUUAGCAAUAUUACGAGUU,self-splicing fitness (ln),30 °C,-3.66 ± 0.28
same,self-splicing fitness (ln),37 °C,-1.85 ± 0.19
UGUUAGCAAUAUUACGAUAG,self-splicing fitness (ln),30 °C,-2.07 ± 0.26
same,self-splicing fitness (ln),37 °C,0.173 ± 0.17
UGUUAGCAAUAUUACGAUCG,self-splicing fitness (ln),30 °C,-0.427 ± 0.26
same,self-splicing fitness (ln),37 °C,-0.0339 ± 0.28
UGUUAGCAAUAUUACGAUGU,self-splicing fitness (ln),30 °C,-1.78 ± 0.12
same,self-splicing fitness (ln),37 °C,-0.548 ± 0.13
UGUUAGCAAUAUUACGAUUC,self-splicing fitness (ln),30 °C,-2.39 ± 0.18
same,self-splicing fitness (ln),37 °C,-0.83 ± 0.18
UGUUAGCAAUAUUACGCACU,self-splicing fitness (ln),30 °C,-0.724 ± 0.1
same,self-splicing fitness (ln),37 °C,-0.553 ± 0.12
UGUUAGCAAUAUUACGCGAU,self-splicing fitness (ln),30 °C,-3.44 ± 0.47
same,self-splicing fitness (ln),37 °C,-1.9 ± 0.4
UGUUAGCAAUAUUACGCGCC,self-splicing fitness (ln),30 °C,-1.13 ± 0.14
same,self-splicing fitness (ln),37 °C,-0.207 ± 0.24
UGUUAGCAAUAUUACGCGGC,self-splicing fitness (ln),37 °C,-3.46 ± 0.29
UGUUAGCAAUAUUACGCUGU,self-splicing fitness (ln),30 °C,-2.07 ± 0.23
same,self-splicing fitness (ln),37 °C,-0.914 ± 0.2
UGUUAGCAAUAUUACGCUUA,self-splicing fitness (ln),30 °C,-1.73 ± 0.18
same,self-splicing fitness (ln),37 °C,-0.323 ± 0.21
UGUUAGCAAUAUUACGGAAG,self-splicing fitness (ln),30 °C,-3.18 ± 0.3
same,self-splicing fitness (ln),37 °C,-1.37 ± 0.17
UGUUAGCAAUAUUACGGACG,self-splicing fitness (ln),30 °C,-0.811 ± 0.15
same,self-splicing fitness (ln),37 °C,-0.257 ± 0.17
UGUUAGCAAUAUUACGGCGG,self-splicing fitness (ln),30 °C,-0.72 ± 0.09
same,self-splicing fitness (ln),37 °C,-0.356 ± 0.1
UGUUAGCAAUAUUACGGGAU,self-splicing fitness (ln),30 °C,-1.94 ± 0.23
UGUUAGCAAUAUUACGGGGC,self-splicing fitness (ln),30 °C,-3.37 ± 0.34
same,self-splicing fitness (ln),37 °C,-3.32 ± 0.46
UGUUAGCAAUAUUACGGGUC,self-splicing fitness (ln),30 °C,-2.97 ± 0.44
same,self-splicing fitness (ln),37 °C,-1.53 ± 0.3
UGUUAGCAAUAUUACGGUCU,self-splicing fitness (ln),30 °C,-1.33 ± 0.09
same,self-splicing fitness (ln),37 °C,-0.963 ± 0.1
UGUUAGCAAUAUUACGUAUA,self-splicing fitness (ln),30 °C,-1.7 ± 0.12
same,self-splicing fitness (ln),37 °C,-0.458 ± 0.11
UGUUAGCAAUAUUACGUAUG,self-splicing fitness (ln),30 °C,-0.871 ± 0.13
same,self-splicing fitness (ln),37 °C,-0.234 ± 0.17
UGUUAGCAAUAUUACGUCAA,self-splicing fitness (ln),30 °C,-1.27 ± 0.12
same,self-splicing fitness (ln),37 °C,-1.2 ± 0.11
UGUUAGCAAUAUUACGUUCA,self-splicing fitness (ln),30 °C,0.071 ± 0.12
same,self-splicing fitness (ln),37 °C,-0.114 ± 0.14
UUAAAGCAAUAUUACGAAUC,self-splicing fitness (ln),30 °C,-3.58 ± 0.26
same,self-splicing fitness (ln),37 °C,-1.79 ± 0.16
UUAAAGCAAUAUUACGACAC,self-splicing fitness (ln),30 °C,-1.54 ± 0.18
same,self-splicing fitness (ln),37 °C,-0.0824 ± 0.22
UUAAAGCAAUAUUACGAGCA,self-splicing fitness (ln),30 °C,-0.0954 ± 0.082
same,self-splicing fitness (ln),37 °C,0.177 ± 0.11
UUAAAGCAAUAUUACGAGUA,self-splicing fitness (ln),30 °C,-1.08 ± 0.096
same,self-splicing fitness (ln),37 °C,-0.715 ± 0.11
UUAAAGCAAUAUUACGAUAC,self-splicing fitness (ln),30 °C,-1.57 ± 0.13
same,self-splicing fitness (ln),37 °C,-0.384 ± 0.16
UUAAAGCAAUAUUACGAUUC,self-splicing fitness (ln),30 °C,-1.07 ± 0.1
same,self-splicing fitness (ln),37 °C,-0.514 ± 0.11
UUAAAGCAAUAUUACGCAAC,self-splicing fitness (ln),30 °C,-3.92 ± 0.25
same,self-splicing fitness (ln),37 °C,-1.75 ± 0.14
UUAAAGCAAUAUUACGCACA,self-splicing fitness (ln),30 °C,0.245 ± 0.098
same,self-splicing fitness (ln),37 °C,-0.401 ± 0.12
